Data set [1] can be described thus: Ex vivo organ distribution in B16F10 tumor-bearing mice. The conditions noted are these: mouse, iv. The arrangement: species or system C57BL/6 mice. How it is done:
(§1) To accomplish post-imaging organ distribution investigations, 9.36 ± 0.67, 6.34 ± 1.07 and 2.39 ± 0.19 MBq of ^68Ga-labeled-^177Lu-labeled-and ^205/206Bi-labeled […]-based probes were iv. Injected, respectively, into the lateral tail vein of both the tumor-naive and the melanoma tumor-carrying experimental mice. Ninety-minutes ([^68Ga]Ga-DOTA-[…]-DOTA-[…]; [^205/206Bi]Bi-DOTA-[…]; [^205/206Bi]Bi-DOTA-[…]) and 24 h ([^177Lu]Lu-DOTA-[…]; [^177Lu]Lu-DOTA-[…]) post tracer administration, mice were sacrificed under Forane-induced inhalation anesthesia. Then, the tumor, the blood, and selected organs and tissues were removed, weighed wet and measured for radioactivity applying a calibrated gamma counter (Perkin-Elmer Packard 406 Cobra, Waltham, MA, USA). The counts per minute (CPM) figures for each sample were converted to percent of administered dose per gram of tissue (%ID/g).

The format of data set [2] is physicochemical. How it is done:
After the dilution of the purified radiotracers ([^68Ga]Ga-DOTA-[…]-DOTA-[…], [^205/206Bi]Bi-DOTA-[…], [^205/206Bi]Bi-DOTA-[…], [^177Lu]Lu-DOTA-[…], [^177Lu]Lu-DOTA-[…]) (50 μL, 1-3 MBq) with 450 μL water, 500 μL n-octanol was added to each sample. […] The activity of the samples from n-octanol phase (20 μL) and aqueous phase (20 μL) was analyzed with gamma counter. The procedure was performed in triplicate. For [^68Ga]Ga-DOTA-[…]-DOTA-[…], [^205/206Bi]Bi-DOTA-[…], [^205/206Bi]Bi-DOTA-[…], [^177Lu]Lu-DOTA-[…], and for [^177Lu]Lu-DOTA-[…] the logP values were -3.46, -2.12, -3.65, -2.32, -2.6, 1.26, respectively.

Data set [3] relates to B16F10 tumor-bearing mice. The data set is described as follows: Ex vivo organ distribution in B16F10 tumor-bearing mice. The arrangement: species or system C57BL/6 mice. Conditions: mouse, iv. How it is done: as §1
The next data set can be described thus: in vivo. Details: species or system C57BL/6 mice. Conditions: C57BL/6, mouse, iv, total radioactivity. The procedure:
At 9 ± 1 days post tumor implantation, at an average tumor bulk of approximately 120 mm^3, the tumor-naive and the B16F10 tumor-bearing mice were intravenously (iv.) injected with 9.36 ± 0.67 MBq of [^68Ga]Ga-DOTA-NAPamide or [^68Ga]Ga-DOTA-IPB-NAPamide via the lateral tail vein. After a 90-min-long tracer distribution time, the study mice were subjected to whole-body static PET acquisition (10 min scans at each bed position) under isoflurane-induced anesthesia (AbbVie, Budapest, Hungary; OGYI-T-1414/01) applying a preclinical MiniPET-II small animal PET device (Division of Nuclear Medicine and Translational Imaging, Department of Medical Imaging, Faculty of Medicine, University of Debrecen).
Three-dimensional ordered-subsets expectation-maximization algorithm (3D OSEM) was used for PET image reconstruction. Three-dimensional ellipsoidal volume of interests (VOI) were manually placed around the border of the organ/tissue activity to calculate their radiotracer concentration. The radiopharmaceutical accumulation was presented as standardized uptake values (SUVs). The following formula was applied for the determination of the SUV parameter:SUV (g/mL) = [VOI activity (Bq/mL)]/[administered activity (Bq)/animal weight (g)]

One may read the tissue uptake as the percentage of the injected dose found per gram of tissue. Low readings indicate little accumulation, high ones strong accumulation. What is called logP is the decadic logarithm of the partition coefficient of the neutral form, usually between octanol and water. Higher therefore signals a more lipophilic compound.

On to `CCCC[C@H](NC(C)=O)C(=O)N[C@@H](CC(=O)O)C(=O)N[C@@H](Cc1c[nH]cn1)C(=O)N[C@H](Cc1ccccc1)C(=O)N[C@@H](CCCNC(=N)N)C(=O)N[C@@H](Cc1c[nH]c2ccccc12)C(=O)NCC(=O)N[C@@H](CCCCNC(=O)CN1CCN(CC(=O)O)CCN(CC(=O)O)CCN(CC(=O)O)CC1)C(N)=O` [[^177Lu]Lu-DOTA-NAPamide, metal not drawn, reference compound], for which the tissue uptake at 24 h in data set [1] (B16-F10 tumor uptake) stood at 0.16 ± 0.15 %ID/g; in data set [1] (fat uptake), 0.01 ± 0.01 %ID/g; in data set [1] (heart uptake), 0.01 %ID/g; in data set [1] (kidney uptake), 1.85 ± 0.79 %ID/g; in data set [1] (liver uptake) it was 0.24 ± 0.13 %ID/g; in data set [1] (lung uptake) it was 0.04 ± 0.03 %ID/g. In addition, the tissue uptake at 24 h in data set [1] (small intestine uptake) was found to be 0.01 ± 0.01 %ID/g; in data set [1] (spleen uptake) it was 0.07 ± 0.04 %ID/g.
Consider `CCCC[C@H](NC(C)=O)C(=O)N[C@@H](CC(=O)O)C(=O)N[C@@H](Cc1c[nH]cn1)C(=O)N[C@H](Cc1ccccc1)C(=O)N[C@@H](CCCNC(=N)N)C(=O)N[C@@H](Cc1c[nH]c2ccccc12)C(=O)NCC(=O)N[C@@H](CCCCNC(=O)CN1CCN(CC(=O)O)CCN(CC(=O)O)CCN(CC(=O)O)CC1)C(N)=O` [[^177Lu]Lu-DOTA-NAPamide] [metal not drawn, reference compound], for which, in data set [2], the logP is recorded as −2.6. In addition, in data set [3] (24 h), the brain uptake amounted to 0.00 ± 0.00 %ID/g and the muscle uptake was 0.00 ± 0.00 %ID/g.
Consider `CCCC[C@H](NC(C)=O)C(=O)N[C@@H](CC(=O)O)C(=O)N[C@@H](Cc1c[nH]cn1)C(=O)N[C@H](Cc1ccccc1)C(=O)N[C@@H](CCCNC(=N)N)C(=O)N[C@@H](Cc1c[nH]c2ccccc12)C(=O)NCC(=O)N[C@@H](CCCCNC(=O)[C@H](CCCCNC(=O)CCCc1ccc(I)cc1)NC(=O)CN1CCN(CC(=O)O)CCN(CC(=O)O)CCN(CC(=O)O)CC1)C(N)=O` [[^177Lu]Lu-DOTA-IPB-NAPamide, metal not drawn], for which the tissue uptake at 24 h was 4.16 ± 1.86 %ID/g in data set [1] (B16-F10 tumor uptake); 3.71 ± 0.73 %ID/g in data set [1] (blood uptake); 0.08 ± 0.01 %ID/g in data set [1] (brain uptake); 0.67 ± 0.34 %ID/g in data set [1] (fat uptake); 1.3 ± 0.12 %ID/g in data set [1] (heart uptake); 5.58 ± 1.59 %ID/g in data set [1] (kidney uptake). Also, the tissue uptake at 24 h amounted to 0.61 ± 0.11 %ID/g in data set [1] (large intestine uptake); 1.97 ± 0.13 %ID/g in data set [1] (liver uptake); 2.5 ± 0.24 %ID/g in data set [1] (lung uptake); 0.33 ± 0.07 %ID/g in data set [1] (muscle uptake); 0.6 ± 0.03 %ID/g in data set [1] (small intestine uptake); 1.32 ± 0.2 %ID/g in data set [1] (spleen uptake). This compound came in with a tissue uptake at 24 h in data set [1] (stomach uptake) of 0.69 ± 0.11 %ID/g.
For `CCCC[C@H](NC(C)=O)C(=O)N[C@@H](CC(=O)O)C(=O)N[C@@H](Cc1c[nH]cn1)C(=O)N[C@H](Cc1ccccc1)C(=O)N[C@@H](CCCNC(=N)N)C(=O)N[C@@H](Cc1c[nH]c2ccccc12)C(=O)NCC(=O)N[C@@H](CCCCNC(=O)[C@H](CCCCNC(=O)CCCc1ccc(I)cc1)NC(=O)CN1CCN(CC(=O)O)CCN(CC(=O)O)CCN(CC(=O)O)CC1)C(N)=O` [[^68Ga]Ga-DOTA-IPB-NAPamide] [metal not drawn], the logP in data set [2] is on record as −2.12.
As for `CCCC[C@H](NC(C)=O)C(=O)N[C@@H](CC(=O)O)C(=O)N[C@@H](Cc1c[nH]cn1)C(=O)N[C@H](Cc1ccccc1)C(=O)N[C@@H](CCCNC(=N)N)C(=O)N[C@@H](Cc1c[nH]c2ccccc12)C(=O)NCC(=O)N[C@@H](CCCCNC(=O)CN1CCN(CC(=O)O)CCN(CC(=O)O)CCN(CC(=O)O)CC1)C(N)=O` [[^68Ga]Ga-DOTA-NAPamide] [metal not drawn, reference compound], in data set [2], the logP is reported as −3.46. In data set [3] (1.5 h), this compound yielded a B16-F10 tumor uptake of 1.18 ± 0.27 %ID/g, a fat uptake of 0.16 ± 0.03 %ID/g, a kidney uptake of 3.07 ± 0.35 %ID/g and a liver uptake of 0.31 ± 0.08 %ID/g. Besides, the spleen uptake in data set [3] (1.5 h) stood at 0.15 ± 0.02 %ID/g.
`CCCC[C@H](NC(C)=O)C(=O)N[C@@H](CC(=O)O)C(=O)N[C@@H](Cc1c[nH]cn1)C(=O)N[C@H](Cc1ccccc1)C(=O)N[C@@H](CCCNC(=N)N)C(=O)N[C@@H](Cc1c[nH]c2ccccc12)C(=O)NCC(=O)N[C@@H](CCCCNC(=O)CN1CCN(CC(=O)O)CCN(CC(=O)O)CCN(CC(=O)O)CC1)C(N)=O` [[^68Ga]Ga-DOTA-NAPamide, metal not drawn, reference compound]: the SUV at 1.5 h in “in vivo” was 0.43 ± 0.09 SUV. Besides, the tissue uptake at 1.5 h in data set [1] (blood uptake) was 0.35 ± 0.1 %ID/g; in data set [1] (brain uptake) it was 0.03 ± 0.01 %ID/g; in data set [1] (heart uptake) it was 0.1 ± 0.06 %ID/g; in data set [1] (large intestine uptake), 0.3 ± 0.01 %ID/g; in data set [1] (lung uptake), 0.33 ± 0.06 %ID/g; in data set [1] (muscle uptake), 0.08 ± 0.02 %ID/g. In addition, the tissue uptake at 1.5 h in data set [1] (small intestine uptake) was 0.35 ± 0.13 %ID/g; in data set [1] (stomach uptake) it was 0.24 ± 0.09 %ID/g.
For `CCCC[C@H](NC(C)=O)C(=O)N[C@@H](CC(=O)O)C(=O)N[C@@H](Cc1c[nH]cn1)C(=O)N[C@H](Cc1ccccc1)C(=O)N[C@@H](CCCNC(=N)N)C(=O)N[C@@H](Cc1c[nH]c2ccccc12)C(=O)NCC(=O)N[C@@H](CCCCNC(=O)[C@H](CCCCNC(=O)CCCc1ccc(I)cc1)NC(=O)CN1CCN(CC(=O)O)CCN(CC(=O)O)CCN(CC(=O)O)CC1)C(N)=O` [[^68Ga]Ga-DOTA-IPB-NAPamide, metal not drawn], the SUV at 1.5 h in the data set “in vivo” was determined as 1.31 ± 0.24 SUV. Further, the tissue uptake at 1.5 h stood at 5.06 ± 1.08 %ID/g in data set [1] (B16-F10 tumor uptake); 14.2 ± 1.87 %ID/g in data set [1] (blood uptake); 0.28 ± 0.02 %ID/g in data set [1] (brain uptake); 2.02 ± 0.65 %ID/g in data set [1] (fat uptake); 5.14 ± 0.72 %ID/g in data set [1] (heart uptake); 4.57 ± 0.88 %ID/g in data set [1] (kidney uptake). For the same compound, the tissue uptake at 1.5 h was determined as 0.92 ± 1.25 %ID/g in data set [1] (large intestine uptake); 2.64 ± 0.11 %ID/g in data set [1] (liver uptake); 6.32 ± 0.91 %ID/g in data set [1] (lung uptake); 1.01 ± 0.18 %ID/g in data set [1] (muscle uptake); 2.41 ± 0.03 %ID/g in data set [1] (small intestine uptake); 2.37 ± 0.25 %ID/g in data set [1] (spleen uptake). In data set [1] (stomach uptake), this compound gave a tissue uptake at 1.5 h of 2.97 ± 1.38 %ID/g.

(Values after paper PMC10536547, “Investigation of the Effect on the Albumin Binding Moiety for the Pharmacokinetic Properties of ^68Ga-, ^205/206Bi-, and ^177Lu-Labeled NAPamide-Based Radiopharmaceuticals” (Pharmaceuticals, 2023).)
